Experiment [1] addresses T1, extracellular domains of UNC5h2 (CAD32251, aa: 25-374) (Mus musculus, UniProt Q8K1S3 25-374).
T1 construct: also called UNC5h2 full-length ectodomain; not shown: C-terminal double Strep-tag II
Nature of the experiment: solid-phase binding.

The target of experiment [2] is T2, Netrin-1 (NET1) from Mus musculus lacking the C-terminal domain (NP_032770, aa: 24-457) (Mus musculus, UniProt O09118 24-457). The experiment can be described thus: solid-phase binding.
Experiment [3] addresses T2, Netrin-1 (NET1) from Mus musculus …. The experiment can be described thus: solid-phase binding, NEO1 immobilized.

Here are results for four molecules from patent publication US20200165308A1 (UNIVERSITY OF MANITOBA, published 2020).

B1: NET1 with the eight loop a/b residues 348RRCRFNME355 replaced by the equivalent residues from NET4 (339DTCHFDVN346) (ligand)
chain: not shown
notes: C350 and F352 are the same in both; also called NET1/NET4 loop a/b swap
As to B1, the “fold drop in affinity against wild type NET1” value in experiment [1] was found to be 50 fold.

B2: UNC5h2 IgG1 (CAD32251, aa: 52-153) (receptor)
chain: not shown
notes: also called Ig1; Ig1 domain of UNC5h2; not shown: C-terminal double Strep-tag II
Consider B2, for which the binding result in experiment [2] is given as “binds”.

B3: UNC5h2 IgG2 (CAD32251, aa: 154-245) (receptor)
chain: not shown
notes: also called Ig2; Ig2 domain of UNC5h2; not shown: C-terminal double Strep-tag II
As to B3, the binding result in experiment [2] was “no binding”.

B4: full-length ectodomain of NEO1 (AAH54540, aa: 41-1107) (receptor)
chain: GAAATKSGSPPQSAGASVRTFTPFYFLVEPVDTLSVRGSSVILNCSAYSEPSPNIEWKKDGTFLNLESDDRRQLLPDGSLFISNVVHSKHNKPDEGFYQCVATVDNLGTIVSRTAKLTVAGLPRFTSQPEPSSVYVGNSAILNCEVNADLVPFVRWEQNRQPLLLDDRIVKLPSGTLVISNATEGDGGLYRCIVESGGPPKFSDEAELKVLQDPEEIVDLVFLMRPSSMMKVTGQSAVLPCVVSGLPAPVVRWMKNEEVLDTESSGRLVLLAGGCLEISDVTEDDAGTYFCIADNGNKTVEAQAELTVQVPPGFLKQPANIYAHESMDIVFECEVTGKPTPTVKWVKNGDVVIPSDYFKIVKEHNLQVLGLVKSDEGFYQCIAENDVGNAQAGAQLIILEHDVAIPTLPPTSLTSATTDHLAPATTGPLPSAPRDVVASLVSTRFIKLTWRTPASDPHGDNLTYSVFYTKEGVARERVENTSQPGEMQVTIQNLMPATVYIFKVMAQNKHGSGESSAPLRVETQPEVQLPGPAPNIRAYATSPTSITVTWETPLSGNGEIQNYKLYYMEKGTDKEQDIDVSSHSYTINGLKKYTEYSFRVVAYNKHGPGVSTQDVAVRTLSDVPSAAPQNLSLEVRNSKSIVIHWQPPSSTTQNGQITGYKIRYRKASRKSDVTETLVTGTQLSQLIEGLDRGTEYNFRVAALTVNGTGPATDWLSAETFESDLDETRVPEVPSSLHVRPLVTSIVVSWTPPENQNIVVRGYAIGYGIGSPHAQTIKVDYKQRYYTIENLDPSSHYVITLKAFNNVGEGIPLYESAVTRPHTVPDPTPMMPPVGVQASILSHDTIRITWADNSLPKHQKITDSRYYTVRWKTNIPANTKYKNANATTLSYLVTGLKPNTLYEFSVMVTKGRRSSTWSMTAHGATFELVPTSPPKDVTVVSKEGKPRTIIVNWQPPSEANGKITGYIIYYSTDVNAEIHDWVIEPVVGNRLTHQIQELTLDTPYYFKIQARNSKGMGPMSEAVQFRTPKALGSAGKGSRLPDLGSDYKPPMSGSNSPHGSPTSPLDSN
notes: also called neogenin; NEO1 full-length ectodomain; not shown: C-terminal double Strep-tag II
With B4, in experiment [3], the binding result was “binds”.
